From patent publication US20250101107A1 (REPERTOIRE IMMUNE MEDICINES, published 2025)

Columns and labels:
[1] = biological target: T1, human CD8 on human T cells (human, UniProt P01732 22-235; P10966 22-210); test: cell-based or functional assay
[2] = biological target: T2, cynomolgus monkey CD8 on cynomolgus cells (cynomolgus monkey); test: cell-based or functional assay
[3] = biological target: T1, human CD8 on human T cells; test: flow cytometry, human PBMCs incubated 30 min at 37 C with the fusion protein, anti-IL-12, gated on CD8+ T cells
Experimental: (§1) Fusion proteins H6K3-IgG-IL12 (LC) and H6K3-IgG-IL12 (1×HC) were also evaluated for their ability to bind CD8-expressing cells in human and cynomolgus monkey PBMCs. Briefly, 5×10⁴ human PBMCs (StemCell Technologies) or cynomolgus monkey PBMCs (iQ Biosciences) were incubated with 7 serial 5-fold dilutions of one of the two aforementioned H6K3-IgG-IL12 constructs for 30 minutes at 37° C. Cells were washed twice with MACS buffer and stained with viability dye and fluorophore-conjugated antibodies against IL-12 and cell-surface markers for 20 minutes at 4° C. Cells were analyzed on a FACSCelesta using Diva software (BD Biosciences). Binding activity for all treatments was quantified and represented as the mean fluorescence intensity values of IL-12 on human CD8+ T cells and NK cells (FIGS. 17A-17B) and on cynomolgus monkey CD8+ T cells and NK cells (FIGS. 17C-17D). For the H6K3-IgG-IL12 (LC) treatments, results are also reported as the frequency of IL-12+CD8+ T cells and NK cells (FIG. 17E). As shown in FIGS. 17A-17D, both H6K3-IgG-IL12 (LC) and H6K3-IgG-IL12 (1×HC) were able to selectively bind human CD8+ T cells over NK cells at a range of concentrations. Only a small proportion of human NK cells express CD8, and therefore the H6K3-IgG-IL12 (LC) construct only bound a small proportion of human NK cells (FIG. 17E upper left and upper right). […]

[4] = biological target: T2, cynomolgus monkey CD8 on cynomolgus …; test: flow cytometry, cynomolgus PBMCs incubated 30 min at 37 C with the fusion protein, anti-IL-12, gated on CD8+ T cells
Experimental: as §1

[5] = biological target: T1, human CD8 on human T cells; test: flow cytometry, human PBMCs incubated 30 min at 37 C with the fusion protein, AF647 anti-human IL-12, gated on CD8+ T cells
Experimental: Fusion proteins H6K3-IgG-IL12 (LC) and H6K3-IgG-IL12 (1×HC) were evaluated for their ability to selectively bind human CD8+ T cells in PBMCs. Briefly, 5×10⁴ human PBMCs (StemCell Technologies) were incubated with 7 serial 5-fold dilutions of one of the two aforementioned H6K3-IgG-IL12 constructs for 30 minutes at 37° C. Cells were washed twice with MACS buffer and stained for 20 minutes at 4° C. with fluorophore-conjugated anti-CD3, anti-CD4, anti-CD8, anti-CD56, and anti-IL12 antibodies, and viability dye. Cells were analyzed on a FACSCelesta using Diva software (BD Biosciences). Binding activity was quantified and represented as the mean fluorescent intensity values of IL-12 on either CD8+ T cells or NK Cells. As shown in FIGS. 16A-16B, both H6K3-IgG-IL12 (LC) and H6K3-IgG-IL12 (1×HC) were able to selectively bind human CD8+ T cells over NK cells at a range of concentrations.

[6] = biological target: T2, cynomolgus monkey CD8 on cynomolgus …; test: flow cytometry, cynomolgus PBMCs incubated 30 min at 37 C with the fusion protein, anti-IL-12, gated on NK cells, which express CD8 in the cynomolgus monkey
Experimental: as §1

mouse CD8 on mouse cells = biological target: T3, mouse CD8 on mouse cells (mouse, UniProt P01731 28-247); test: in vivo, B16F10 tumour-bearing mice, flow cytometry of peripheral blood 4 days after the first i.v. dose; % IL-12p40+ of CD8+ T cells
T3 construct: whole, on cells; Carried by CD8+ T cells and CD8+ dendritic cells of C57BL/6 mice, read ex vivo after dosing; also called mCD8
T3 sequence (P01731 28-247): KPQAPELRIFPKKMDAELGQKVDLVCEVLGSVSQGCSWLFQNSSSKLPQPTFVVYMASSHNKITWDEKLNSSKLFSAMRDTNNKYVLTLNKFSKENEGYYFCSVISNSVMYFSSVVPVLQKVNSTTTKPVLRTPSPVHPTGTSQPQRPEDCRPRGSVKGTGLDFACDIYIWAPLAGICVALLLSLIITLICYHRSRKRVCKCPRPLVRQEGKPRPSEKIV
Experimental: Mice were injected weekly for a total of 4 doses, at a dose equivalent to 10 μg of recombinant IL12. Tumor volume was measured twice per week, and mice were euthanized if tumor volume exceeded 2000 mm³. […] Specifically, in the MC38 model, treatment with the CD8IgG-IL12 (LC) Clone 2 construct controlled tumor growth up to day 21 and yielded 3/8 complete responders, whereas treatment with the CD8IgG-IL12 (1×HC) construct controlled tumor growth for the entire duration of the study and yielded 7/8 complete responders (FIGS. 6A-6C). In the B16-F10 model, which is typically less responsive to immunotherapy, both constructs limited tumor growth for up to 14 days after the initial dose (FIGS. 7A-7C).
In the same study, the two anti-CD8:IL-12 fusion constructs were also evaluated for their ability to be retained in tissues. Peripheral blood cells were collected from MC38 and B16-F10 tumor-bearing mice 4 days after administration of the first dose of the IL-12 construct. Samples were analyzed by flow cytometry. In the case of the MC38 tumor-bearing mice, IL-12 was detected on the surface of CD8⁺ T cells 4 days post-treatment with either of the two anti-CD8:IL-12 fusion protein constructs, but not on the surface of CD4⁺ T cells or NK cells (FIG. 8A). […]

T1 sequence (P01732 22-235, chain 1 of 2): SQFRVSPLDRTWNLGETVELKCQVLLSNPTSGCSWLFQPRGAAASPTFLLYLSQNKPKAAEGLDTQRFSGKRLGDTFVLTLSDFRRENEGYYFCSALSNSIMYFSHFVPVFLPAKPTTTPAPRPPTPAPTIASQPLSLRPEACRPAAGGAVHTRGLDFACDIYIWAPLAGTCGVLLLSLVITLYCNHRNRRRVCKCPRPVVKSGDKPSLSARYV
T1 sequence (P10966 22-210, chain 2 of 2): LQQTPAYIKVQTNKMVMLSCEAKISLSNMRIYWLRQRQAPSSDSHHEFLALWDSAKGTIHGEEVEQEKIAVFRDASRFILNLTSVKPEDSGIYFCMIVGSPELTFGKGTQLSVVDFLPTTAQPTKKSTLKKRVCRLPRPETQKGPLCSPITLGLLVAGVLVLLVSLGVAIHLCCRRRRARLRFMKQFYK

B1: H6K3-IgG-IL12 (1×HC) (other)
heavy 1: EVQLVQSGAEVKKPGATVKISCKASGYTFTDFTMHWVQQAPGKGLEWIGLVNPNNGGNIYAEKFQGRVTLTVDTSTSTAYMELSSLRSEDTAVYYCGRVPLYTSHGMDYWGQGTLVTVSSASTKGPSVFPLAPSSKSTSGGTAALGCLVKDYFPEPVTVSWNSGALTSGVHTFPAVLQSSGLYSLSSVVTVPSSSLGTQTYICNVNHKPSNTKVDKKVEPKSCDKTHTCPPCPAPEAAGGPSVFLFPPKPKDTLMISRTPEVTCVVVDVSHEDPEVKFNWYVDGVEVHNAKTKPREEQYASTYRVVSVLTVLHQDWLNGKEYKCKVSNKALGAPIEKTISKAKGQPREPQVYTLPPSRDELTKNQVSLWCLVKGFYPSDIAVEWESNGQPENNYKTTPPVLDSDGSFFLYSKLTVDKSRWQQGNVFSCSVMHEALHNHYTQKSLSLSPGKGGGSGGGGSGGGGSGGGGSIWELKKDVYVVELDWYPDAPGEMVVLTCDTPEEDGITWTLDQSSEVLGSGKTLTIQVKEFGDAGQYTCHKGGEVLSHSLLLLHKKEDGIWSTDILKDQKEPKNKTFLRCEAKNYSGRFTCWWLTTISTDLTFSVKSSRGSSDPQGVTCGAATLSAERVRGDNKEYEYSVECQEDSACPAAEESLPIEVMVDAVHKLKYENYTSSFFIRDIIKPDPPKNLQLKPLKNSRQVEVSWEYPDTWSTPHSYFSLTFCVQVQGKSKREKKDRVFTDKTSATVICRKNASISVRAQDRYYSSSWSEWASVPCSGGGSGGGSGGGSGGGSRNLPVATPDPGMFPCLHHSQNLLRAVSNMLQKARQTLEFYPCTSEEIDHEDITKDKTSTVEACLPLELTKNESCLNSRETSFITNGSCLASRKTSFMMALCLSSIYEDLKMYQVEFKTMNAKLLMDPKRQIFLDQNMLAVIDELMQALNFNSETVPQKSSLEEPDFYKTKIKLCILLHAFRIRAVTIDRVMSYLNAS
heavy 2: EVQLVQSGAEVKKPGATVKISCKASGYTFTDFTMHWVQQAPGKGLEWIGLVNPNNGGNIYAEKFQGRVTLTVDTSTSTAYMELSSLRSEDTAVYYCGRVPLYTSHGMDYWGQGTLVTVSSASTKGPSVFPLAPSSKSTSGGTAALGCLVKDYFPEPVTVSWNSGALTSGVHTFPAVLQSSGLYSLSSVVTVPSSSLGTQTYICNVNHKPSNTKVDKKVEPKSCDKTHTCPPCPAPEAAGGPSVFLFPPKPKDTLMISRTPEVTCVVVDVSHEDPEVKFNWYVDGVEVHNAKTKPREEQYASTYRVVSVLTVLHQDWLNGKEYKCKVSNKALGAPIEKTISKAKGQPREPQVYTLPPSRDELTKNQVSLSCAVKGFYPSDIAVEWESNGQPENNYKTTPPVLDSDGSFFLVSKLTVDKSRWQQGNVFSCSVMHEALHNHYTQKSLSLSPGK
light: EIVLTQSPATLSLSPGERATISCRASESVDSYDINSMHWYQQKPGQAPRLLIYRASHLQSGIPARFSGSGSRTDFTLTISSLEPEDFATYYCQQSNEDPLTFGQGTKLEIKRTVAAPSVFIFPPSDEQLKSGTASVVCLLNNFYPREAKVQWKVDNALQSGNSQESVTEQDSKDSTYSLSSTLTLSKADYEKHKVYACEVTHQGLSSPVTKSFNRGEC
notes: also called hCD8IgG-1×IL12 (HC); hCD8IgG-IL12 (1 × HC)
- EC50 for stimulation of pSTAT4 signaling, human CD8+ T cells in activated PBMCs [1]: 2.3 pM
- EC50 for stimulation of pSTAT4 signaling, cynomolgus CD8+ T cells in activated PBMCs [2]: 2.3 pM
- EC50 for stimulation of pSTAT4 signaling, cynomolgus NK cells in activated PBMCs [2]: 2 pM
- EC50 (read off the curve) [3]: ~40 pM
- EC50 (read off the curve) [4]: ~50 pM
- EC50 (read off the curve) [5]: ~60 pM
- EC50 (read off the curve) [6]: ~90 pM

B2: rIL-12 (ligand)
alpha: RVIPVSGPARCLSQSRNLLKTTDDMVKTAREKLKHYSCTAEDIDHEDITRDQTSTLKTCLPLELHKNESCLATRETSSTTRGSCLPPQKTSLMMTLCLGSIYEDLKMYQTEFQAINAALQNHNHQQIILDKGMLVAIDELMQSLNHNGETLRQKPPVGEADPYRVKMKLCILLHAFSTRVVTINRVMGYLSSA
beta: MWELEKDVYVVEVDWTPDAPGETVNLTCDTPEEDDITWTSDQRHGVIGSGKTLTITVKEFLDAGQYTCHKGGETLSHSHLLLHKKENGIWSTEILKNFKNKTFLKCEAPNYSGRFTCSWLVQRNMDLKFNIKSSSSSPDSRAVTCGMASLSAEKVTLDQRDYEKYSVSCQEDVTCPTAEETLPIELALEARQQNKYENYSTSFFIRDIIKPDPPKNLQMKPLKNSQVEVSWEYPDSWSTPHSYFSLKFFVRIQRKKEKMKETEEGCNQKGAFLVEKTSTEVQCKGGNVCVQAQDRYYNSSCSKWACVPCRVRS
notes: also called rmIL-12; non-targeted recombinant mouse IL-12; copies: 1 + 1
- binding result (mouse CD8 on mouse cells): no binding
